Results as given in the supplement of paper PMC12636428.

System: Saccharomyces cerevisiae
Test: transcriptional activation domain activity (GFP:mCherry ratio, weighted mean of sorted bins, harmonized to initial dataset scale) (arbitrary fluorescence ratio units); higher = stronger transcriptional activation
Conditions: beta-estradiol 1 µM; induction time 4 h
Experimental: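 53-aa protein tiles (fungal proteins plus yeast TF control tiles) fused C-terminally to a DBD-estrogen-binding domain-mCherry synthetic TF, integrated in S. cerevisiae (URA3 locus) with a GFP reporter. Cells were induced with 1 uM beta-estradiol for 4 h at 30 C, FACS-sorted into 8 bins by GFP:mCherry ratio and barcodes sequenced. Activity is the read-weighted mean bin fluorescence (GFP:mCherry), averaged over barcodes (median 12); tiles under 50 reads were discarded. New active-learning values were harmonized by linear fit onto the scale of the initial (Hummel et al.) dataset. The assay saturates at low and high signal.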

Row | Sequence | transcriptional activation domain activity
1 | LQCLLLSVLSPIGLVLLYSHLIGTDLIVIVSQLMFDYQVVQSWFIIFVCLVYW | 57400
2 | ENSEDALHNSETMDLLGTLSHGNDFALEYNFDFTLLNEIDMLIGGNTNDGLSK | 101000
3 | KGRAEKKKKSSRRRDESESEGEEGEGGGGGGGRAPPKKRARLASKKEAQSGKY | 31500
4 | MPLLPRWRGKACKVVILAQFDHRYYIHGTLKRLTDVVAWLKAWWICVFWLGSR | 61300
5 | LQLYLSSHHREMLVDIWDRLWPWMVFFHVNRGCIADPFMLRPHPCFNLLHFIV | 65600
6 | ILFIGGLFLIIAPQMTFHVPAYRIRLCEAACFLCRNFLVFLKRKSVAVIVEMF | 59000
7 | QAGSTGSSSRKRKKAVTDGEETPSTSEPRRLRRSHEACARCRSKKIKASACDS | 28300
8 | KGKGKGKEGKGKGRREGEGGRGTEGREMGEKEREEEREEEREGKEGRREGGKE | 24100
9 | KPKPKPKQYPKVILPSNSTRRVSPVTAKTSSSAEGVVVASESPVIAPHGSSHS | 47200
10 | ESAVKFENSGPFINPSRASTLLVSRDSNRIILSGTTARGKTAVFLTTGLLVES | 63200
11 | MFGFSLFFLFCFSVIVGFILFTLFFDYSPLSISLSCSVYCIMLCLSLFFLVFF | 34200
12 | AGAPVFGLPPFRWWRFNVFWMFWCFFWNLQGVINLVTLDINGYLSIFIPFITI | 58700
13 | LTYRVYIMGIGIWMTYLGIGWFLCIILPFLFRFCRLMFWWRKLCFLQALFFFF | 62200
14 | ILFCSWLSFRQLFFLFICNTHHWVFEDYFCHFSFFLSLFLMAITWKCFFFFFF | 38900
15 | ATKTKAATTKKAAVPKKAAAKPAPKKAVAAAKPKANAGRPRKTVAAAAGPAPA | 42000
16 | ACIVFWMGSWVYKYQLMFVFVSKVESGGRVWNVVINRLLFCVVLMQCLMILTI | 73700
17 | FPSLRLPFCVCLWFRLFVFFFHIGSFVLLVRLFFFFFNFGLFFLFFFLFSFFS | 27500
18 | YVRRARGYVMYGLFQLMLRFLLAGFFFFSFRGGDMGIGCGYRLLLLLFFFFIY | 35800
19 | DYCSFNSFPPSHFMSLYKNLGSFFLLSSFPPPPFFFVLLYLPASCLCFFCLFF | 54500
20 | MLNLVILAFVIVFSTFLIGCVDYAAIPTHHALSEVMLPHCYARLSPSTVLFLL | 39700
21 | RLFAELFMFSICLFSRVLSYFSVFQLQLINVLMYFLPLMIICGYWAGLLNVAI | 52500
22 | MRQRLGGQLFSKSFFYALLVTSTWSSKLVYLSPHFTSLPPLLILLYAPTFLLL | 60600
23 | GMKNIDEGPETENDATENSLTTILNDLEGPLEDFSENFIDDILGSPSAFFDTA | 151000
24 | RAKKDAKESTTSKDTGTGKGAGSSREGRGSRNTSSRGRGSASGRQSTRKSRAR | 29300
25 | MLHSISTYLIFPLLYLFILSFNIYHFFFFSLKIITILIFLHTFVLLLFSWRKY | 60400
26 | VPYFHGLQPNNHYIHRLVVIFLQFAPSFIILTISYEGLFYFGFCLCLFCWILL | 40300
27 | MALHALLHLLNVYYQGCLPYNVLVITVCTMLYKLFFSKSFYCRFRRFGRPWYL | 54300

Row | Sequence | transcriptional activation domain activity
28 | FSLGTVLLALCRYLPFGTILQIYVLFLRVESPLCVNGYRAIAFPVVCLWVLLV | 52600
29 | LIVMRDRVEIIMLLWPIINIAFVILVGYDSDVTKSIRRLRQKYWSSLSVMAST | 68600
30 | GHGSSDGGRPPAKRARKAINCEPCRSSKLKCDRNRPCSSCVLRGTAAQCYPGS | 38800
31 | TLRVSNLLCWFLLCLTSVPGLGIVYYTYFLLPDTPYCLWALCLYTKSFIAPLM | 63000
32 | PLIPHVLPSLFPCPLFLPLFPPSPLLSPFPPSLCFPLPPFFLFPPLPLFPPFL | 25600
33 | YPLLVCLLDLVKNNSLDDTGWLIGLGCTLWYENSIYIVRKAMELCLRAQEKID | 52000
34 | MMRSAANMGLISQPSNLLLVVQPCPPLLLCVLFPPPLSSYCLLLSLSLLLFFF | 38500
35 | STPAAKPTPEPGQQPRKRGRPRIIRDDPPEGGGPPAAKKAKRGRKPKVVAPPA | 27400
36 | MLTLLSVTHGLLHKSLVHLGSIFDLCLLWAQGKYTNPILSCLLSLYLLSWLLY | 62700
37 | PLIDLFGKDHLCLVKAAYHKIFGIVFESGTDLTDHVRRMLCTRSDFARTILPL | 82800
38 | SVCNDGNAGDFLYDCFGEFNNQPFNWDVLSPRVAANPYYSFDDFGSSLFILFQ | 106000
39 | GDKTEGAEGEDGAQRRQSTRGRGRSGRGRGGRGRGGRADENKDEENHEDAGES | 22500
40 | MIPGVLLECSFVEFLSFLLDLLLLTLLWIMRLMMMLLLPLFLLLLLIFVYCCV | 39500
41 | VVLWHIVISLRFWFNFVSVVPALRWVYLSIYEIKVDYKNLIEYTLPQLCSLFI | 54600
42 | RGREDNEDGGRNKRRGGGRFEGRRGRGDRDGNRRRDTRDSRREDKSTANGDAS | < 6570
43 | KKKSSRKRDEEDKERSLRKHSRHHKSRRKRSRERSESPESSRHRHRHKKSSSS | 17600
44 | GAEGAGAPGGAPPQLKKPKKHHKKKHHKKHGHRGGKHKHGKKGKWGKKGKKGL | 15100
45 | SLLMLLFIRGWFSYLIAVVSISGVLVLHMLYFLLQWRLKYILWLLLHCSIAIP | 79500
46 | MYVEIFFLSLVWRIIIVLSLTSKGVFFNITYLFFRFLFSLVLCIFFFLHFFSL | 43100
47 | FKDNPKVIETKDKVMHYNTQLRYHGLRDHQVNIRNTRRHAIALLIWRVVQMVF | 39500
48 | FFFFLLLLLLFFFLLRFLLLVYYYPNHPTHTYQPISFQFQPTHQIHHNALQHH | 32200
49 | YVASQLIEIFLPEALFSVVYLSNAGKCLSREEFLVQFTFLVRLFKHEFVYPWN | 30700
50 | TSSPQKGAEKEEAAEAEPEKEKEAEAEAPASPQKRITPMKRGRGRPKRGGAAV | 27500
51 | NSTIHNLLEVVLLPDLCGFCCFSMRFVVLLDLIGTLTLPVTCLYLIYLIYVIA | 52100
52 | RHLSIRLCEIGLIIFAHGLHVHNAYSHLYICLHVVTSRYLYGSHCMVCQLLFY | 75800
53 | KPKAAAKAAKPAKKAAPEKAEKPEKPEKAKEVEKPEKPEKVSKPAAKKAAPVA | 25000
54 | MYELAFFFFFFLFRLFLSLFRGGCFWVQIFVFIPEYLVYSILFSFFFLLLFTF | 47500

Row | Sequence | transcriptional activation domain activity
55 | PIHALFCTHIWLLFKLCILCVLFLLSLLCLYGGSMINTGLRIILHLLLCVYLF | 81800
56 | YILARYSIFFLYYLQFSRGYIPEYLNPTLPSYEEIESWLFLKTVWFQVLIWTV | 65500
57 | QVKAKTARKSSRAATKKSSAKRRRDESSEESSDEDESGGERVSRGRGGAVRDK | 36000
58 | PEEEEQAEAGVDSSIVEIAPKRGRGRPRKSLPTEGTTAEAPAKRGRGRPKKVS | 27600
59 | NNLLELITDIIIALDMNFVNCMTCVDDDEKALMTLRICEYFIDRLVRTIMVAT | 51300
60 | TLLYLYTFSFLFPPLLFILILLHLHHLSSSHLFFIHSIILSHNKLWPLLFLLS | 53400
61 | GSAFGQSAFGKPATGAFGAPTSAFGSNTTTNNNTTTTSSAFGSSTATSAFGSA | 14300
62 | AHVGVGISGVEGLQAARSADIAISQFRYLKKLLLVHGAWSYRRLSKLILYSFY | 82600
63 | LFHSYFSFLLLFFFFFFFYFLPFFFFLPSLLPHFLLFSFYFPFISPFLSTSFS | 58800
64 | HTVGGKPSELMRSSEEDEDKICGAIGCDDTESAPSNACGRCKRVYYCSRACQT | 42800
65 | PSNQAFWIACLFSSVMYHLLFHLLLLFFSLLFLFFLFFLPSYHVLFHFHHMTG | 47700
66 | MFCLRSWLPLLFIPTNAPPIFVFLFFVCTFFLSRPCVYCSFLLAILFLTSCYW | 65100
67 | SLLQSLPFPLQFLTLCFNSHLLIVIVVIIGCILESIYVGTFLWMLLRVCRWQG | 66500
68 | MLSQSGLPKVLGLASAFVYSWTPMILLACYTVGSLCFYLIIPSLLGEILWYIY | 60100
69 | MGYCFFLYIYIPFTLLFSNTCRLVGVFLSFYICMIGYSLLWLPNLWLAFFLIN | 37700
70 | MDPSTRRRVTNIGPLDKRRTLRRCEQCRISRTKCEGGRPCHACRARLVGCRDQ | 41700
71 | ESEVAVVVHIGANTTAYQFLALCAMMAPMRDLFYAFGRVTIYALAPMFHAVRV | 73900
72 | FLNNAPDEDPNLNNQWSICDDFSEGRQVNDAFVGGSNIPHTLKGLQKSLRFMN | 50800
73 | ISICLPELRLFMYCKFLYWLEVMSLLNDLEHVKQMLKDVLGCGKMQLKVFKFT | 62000
74 | GEAGEAGEAGAEGTATEEREEEEEQQQKKEERKRKRKRKQQQGSGKVTVAAAK | 45000
75 | LSHSFFSSCCCLLRTLGRFLLFIIFFLSFYFFIFTFFFFFSFQTYLLLYLLLI | 31400
76 | MFLCFFHVFMLYLCHYVIVMLIYFLIYFMLFLLFMFLNTILQYEFLILHFCFI | 47500
77 | GHWSYFRNSSMILNFFYKNIIGIGVLFWFQIFCGWSTTYVFAYVYLLFWNVFW | 51500
78 | DIDMEDVDGDAAPSAKKAKASKKRKKDAESDGEQEKACLSFRTILLHSLIFIQ | 41900
79 | EVKLEEAEATGASVKRKSRKSKIETDIADGADNEATPSGSRRRGRPRKSQPDP | 59400
